Measurements reported in patent US20030027338A1 (BROOKHAVEN SCIENCE ASSOCIATES, published 2003).
Substitutions are numbered along the chain they refer to.

T1: Ad12 knob mutant P417E/P418A (his-tagged) (adenovirus serotype 12, UniProt P36711 401-587)
T1 construct: range 401-587; AB loop; also called double substitution P417E/P418A; not shown: pET15b vector-encoded N-terminal hexahistidine tag
T1 sequence: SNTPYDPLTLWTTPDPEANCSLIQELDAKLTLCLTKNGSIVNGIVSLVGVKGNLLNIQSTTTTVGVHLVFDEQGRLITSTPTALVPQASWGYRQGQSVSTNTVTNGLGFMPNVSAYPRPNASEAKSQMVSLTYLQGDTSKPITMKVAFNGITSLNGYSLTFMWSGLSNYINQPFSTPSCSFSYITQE

T2: his-tagged Ad12 knob (wild type) (adenovirus serotype 12, UniProt P36711 401-587)
T2 construct: range 401-587; Cloned between the NdeI and BamHI sites of pET15b; tag left on; also called Purified, his-tagged Ad12 knob; wild-type his-tagged knob protein; not shown: pET15b vector-encoded N-terminal hexahistidine tag
T2 sequence: T1 sequence with E17P, A18P

B1: his-tagged D1 (refolded amino-terminal IgV domain of human CAR) (receptor)
chain: MGITTPEEMIEKAKGETAYLPCKFTLSPEDQGPLDIEWLISPADNQKVDQVIILYSGDKIYDDYYPDLKGRVHFTSNDLKSGDASINVTNLQLSDIGTYQCKVKKAPGVANKKIHLVVLVKPSGA
notes: range 20-144; also called CAR D1; CARD1; not shown: pET15b vector-encoded amino-terminal hexahistidine tag
B2: biotinylated CARD1 protein (receptor)
chain: B1 chain with M1L, G2S
modifications: biotinylated with sulfo-NHS-LC biotin (sites not given)
notes: domain: D1
B3: sD1 (soluble D1 of human CAR with 22 amino acid carboxy-terminal extension) (receptor)
chain: MGITTPEEMIEKAKGETAYLPCKFTLSPEDQGPLDIEWLISPADNQKVDQVIILYSGDKIYDDYYPDLKGRVHFTSNDLKSGDASINVTNLQLSDIGTYQCKVKKAPGVANKKIHLVVLVKPSGALEDPAANKARKEAELAAATAEQ
notes: range 20-144; No hexahistidine tag; Used as a partially purified preparation; also called pET15b-sD1 product
B4: his-tagged D1/D2 (refolded entire extracellular region of human CAR, IgV+IgC2 domains) (receptor)
chain: MGITTPEEMIEKAKGETAYLPCKFTLSPEDQGPLDIEWLISPADNQKVDQVIILYSGDKIYDDYYPDLKGRVHFTSNDLKSGDASINVTNLQLSDIGTYQCKVKKAPGVANKKIHLVVLVKPSGARCYVDGSEEIGSDFKIKCEPKEGSLPLQYEWQKLSDSQKMPTSWLAEMTSSVISVKNASSEYSGTYSCTVRNRVGSDQCLLRLNVVPPSNKAG
notes: range 20-237; also called CAR D1/D2; CARD1/D2; not shown: pET15b vector-encoded amino-terminal hexahistidine tag
B5: Ad12 knob (recombinant adenovirus type 12 fiber knob domain, his-tag removed by thrombin) (other)
chain: T1 sequence with E17P, A18P
notes: range 401-587; Expressed from pET15b in E. coli; The hexahistidine tag was cleaved with thrombin; Trimer by SDS-PAGE, STEM (60.6 kDa) and gel filtration; also called Ad12 fiber knob

Assays:
[1] = molecular target: T3, purified Ad2 hexon protein (adenovirus type 2, UniProt P03277 2-968); assay: Ni-NTA pull-down with his-tagged D1, SDS-PAGE of bead eluate
T3 construct: Included as a specificity control in the pull-down
T3 sequence (P03277 2-968 limits assumed): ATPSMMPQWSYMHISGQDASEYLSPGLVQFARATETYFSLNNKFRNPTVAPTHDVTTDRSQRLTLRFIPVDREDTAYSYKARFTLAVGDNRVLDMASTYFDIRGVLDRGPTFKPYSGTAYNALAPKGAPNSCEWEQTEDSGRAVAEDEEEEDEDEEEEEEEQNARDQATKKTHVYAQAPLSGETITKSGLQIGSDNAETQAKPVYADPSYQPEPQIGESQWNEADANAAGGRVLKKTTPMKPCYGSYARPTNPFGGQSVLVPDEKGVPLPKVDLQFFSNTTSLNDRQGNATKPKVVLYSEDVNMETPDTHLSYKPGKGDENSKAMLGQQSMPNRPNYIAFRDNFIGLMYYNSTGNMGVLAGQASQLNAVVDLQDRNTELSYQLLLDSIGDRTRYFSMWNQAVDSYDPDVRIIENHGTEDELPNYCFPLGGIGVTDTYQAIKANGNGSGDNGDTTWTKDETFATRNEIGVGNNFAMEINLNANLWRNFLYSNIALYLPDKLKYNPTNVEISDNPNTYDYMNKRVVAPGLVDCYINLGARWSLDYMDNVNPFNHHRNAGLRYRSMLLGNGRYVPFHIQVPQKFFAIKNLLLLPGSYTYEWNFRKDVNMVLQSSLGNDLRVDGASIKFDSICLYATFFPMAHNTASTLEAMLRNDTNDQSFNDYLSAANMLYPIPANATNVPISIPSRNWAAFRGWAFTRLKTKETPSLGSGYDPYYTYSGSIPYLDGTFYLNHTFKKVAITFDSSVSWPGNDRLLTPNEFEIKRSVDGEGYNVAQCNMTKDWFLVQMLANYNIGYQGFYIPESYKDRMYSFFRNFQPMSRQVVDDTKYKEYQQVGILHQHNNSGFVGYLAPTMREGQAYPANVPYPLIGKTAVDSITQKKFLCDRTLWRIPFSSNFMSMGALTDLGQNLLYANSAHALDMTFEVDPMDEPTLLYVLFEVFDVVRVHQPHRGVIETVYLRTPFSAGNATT

[2] = molecular target: T1, Ad12 knob mutant P417E/P418A …; assay: dot blot: his-tagged knob on nitrocellulose (5 µg per dot) probed with biotinylated CARD1, chemiluminescence; text: abrogated CARD1 binding
[3] = molecular target: T2, his-tagged Ad12 knob (wild type); assay: Ni-NTA column capture of his-tagged knob mixed with sD1, EDTA elution, SDS-PAGE
[4] = molecular target: T3, purified Ad2 hexon protein; assay: Ni-NTA pull-down with his-tagged D1/D2, SDS-PAGE of bead eluate
[5] = molecular target: B4; assay: as above

B1: no binding [1].

B2: no binding (tested: 5 µg/ml biotinylated CARD1) [2].

B3: binds [3].

B4: no binding [4].

B5: binds [5].
